Results as given in the Immune Epitope Database (IEDB).
pIC50, pKd: −log10 of the molar value.

Columns and labels:
HLA-A*02:01 [1] = test: IEDB peptide-MHC binding, purified MHC/competitive/fluorescence; ≥ and ≤ were set here for values at or beyond the usual limits of such assays; conditions: source organism: Zaire ebolavirus
HLA-A*03:01 [2] = test: as above; conditions: source organism: Zaire ebolavirus
HLA-A*11:01 [3] = test: as above; conditions: source organism: Zaire ebolavirus
HLA-A*24:02 = test: as above; conditions: source organism: Zaire ebolavirus
HLA-B*46:01 = test: IEDB peptide-MHC binding, purified MHC/competitive/fluorescence; filed as Kd, often an IC50 or EC50 that approximates it; ≥ and ≤ were set here for values at or beyond the usual limits of such assays
HLA-A*02:01 [4] = test: as above
HLA-B*15:01 [5] = test: as above
HLA-B*51:01 = test: as above
HLA-A*03:01 [6] = test: as above; conditions: source organism: Giardia intestinalis ATCC 50581
HLA-B*39:01 = test: as above
HLA-A*02:12 [7] = test: as above; conditions: source organism: Giardia intestinalis ATCC 50581
HLA-A*24:03 [8] = test: as above
HLA-B*18:01 = test: as above
HLA-B*27:03 = test: as above
HLA-A*26:01 [9] = test: as above
HLA-B*57:01 = test: as above
HLA-B*40:01 = test: IEDB peptide-MHC binding, purified MHC/direct/fluorescence; filed as Kd, often an IC50 or EC50 that approximates it; ≥ and ≤ were set here for values at or beyond the usual limits of such assays; conditions: source organism: Brucella abortus
HLA-A*11:01 [10] = test: as above; conditions: source organism: Brucella abortus
HLA-A*02:01 [11] = test: as above; conditions: source organism: Brucella abortus
HLA-B*44:02 = test: as above; conditions: source organism: Brucella abortus
HLA-B*58:01 = test: as above; conditions: source organism: Brucella abortus
HLA-B*15:01 [12] = test: as above; conditions: source organism: Brucella melitensis
HLA-A*31:01 [13] = test: as above; conditions: source organism: Brucella abortus
HLA-A*03:01 [14] = test: as above
HLA-B*07:02 [15] = test: as above
HLA-A*24:03 [16] = test: as above
HLA-A*69:01 [17] = test: as above; conditions: source organism: Brucella abortus
HLA-A*26:01 [18] = test: as above
HLA-B*35:01 = test: as above; conditions: source organism: Brucella melitensis
HLA-B*27:05 = test: as above; conditions: source organism: Brucella abortus
HLA-B*08:01 [19] = test: as above
HLA-A*31:01 [20] = test: IEDB peptide-MHC binding, purified MHC/competitive/fluorescence; filed as Kd, often an IC50 or EC50 that approximates it; ≥ and ≤ were set here for values at or beyond the usual limits of such assays; conditions: source organism: Zaire ebolavirus
HLA-A*69:01 [21] = test: as above; conditions: source organism: Zaire ebolavirus
HLA-B*15:17 = test: as above; conditions: source organism: Zaire ebolavirus
HLA-A*02:11 = test: IEDB peptide-MHC binding, purified MHC/direct/fluorescence; filed as Kd, often an IC50 or EC50 that approximates it; ≥ and ≤ were set here for values at or beyond the usual limits of such assays; conditions: source organism: Zaire ebolavirus
HLA-A*68:02 = test: as above; conditions: source organism: Zaire ebolavirus
HLA-A*02:12 [22] = test: as above; conditions: source organism: Zaire ebolavirus
HLA-A*02:16 = test: as above; conditions: source organism: Zaire ebolavirus
HLA-A*02:03 = test: as above; conditions: source organism: Zaire ebolavirus
HLA-A*29:02 = test: as above; conditions: source organism: Zaire ebolavirus
HLA-A*02:19 = test: as above; conditions: source organism: Zaire ebolavirus
HLA-B*15:01 [23] = test: IEDB peptide-MHC binding, purified MHC/competitive/fluorescence; ≥ and ≤ were set here for values at or beyond the usual limits of such assays; conditions: source organism: Zaire ebolavirus
HLA-B*07:02 [24] = test: as above; conditions: source organism: Zaire ebolavirus
HLA-B*08:01 [25] = test: as above; conditions: source organism: Zaire ebolavirus
[26] = source organism: Giardia intestinalis ATCC 50581
[27] = source organism: Brucella abortus
[28] = source organism: Zaire ebolavirus
[29] = source organism: Ebola virus - Eckron (Zaire, 1976)

Sequence | pIC50 (HLA-A*03:01 [2]) | pIC50 (HLA-A*24:02) | pKd (HLA-B*46:01; [28]) | pKd (HLA-A*02:01 [4]; [28]) | pKd (HLA-B*51:01; [28]) | pKd (HLA-B*39:01; [28]) | pKd (HLA-B*18:01; [28]) | pKd (HLA-B*27:03; [28]) | pKd (HLA-A*69:01 [21]) | pKd (HLA-B*57:01; [28]) | pKd (HLA-A*02:11) | pKd (HLA-A*68:02) | pKd (HLA-A*02:12 [22]) | pKd (HLA-A*24:03 [16]; [28]) | pKd (HLA-A*02:16) | pKd (HLA-A*02:03) | pKd (HLA-A*02:19) | other results
FLLMLCLHH | ≤ 3.89 |  |  |  |  |  |  |  |  |  |  |  |  |  |  |  |  | pIC50 (HLA-A*02:01 [1]): 4.91
FYWPVMNHK | 5.33 | 5.01 |  |  |  |  |  |  |  |  |  |  |  |  |  |  |  | pIC50 (HLA-A*11:01 [3]): 5.34
GLYLYRFHV |  |  |  |  |  |  |  |  |  |  |  |  |  |  |  |  |  | pKd (HLA-B*46:01; [26]): ≤ 4.70; pKd (HLA-A*02:01 [4]; [26]): 8.85; pKd (HLA-B*15:01 [5]; [26]): ≤ 4.70; pKd (HLA-B*51:01; [26]): ≤ 4.70; pKd (HLA-A*03:01 [6]): ≤ 4.70; pKd (HLA-B*39:01; [26]): ≤ 4.70; pKd (HLA-A*02:12 [7]): 8.26; pKd (HLA-A*24:03 [8]; [26]): ≤ 4.70; pKd (HLA-B*18:01; [26]): ≤ 4.70; pKd (HLA-B*27:03; [26]): ≤ 4.70; pKd (HLA-A*26:01 [9]; [26]): ≤ 4.70; pKd (HLA-B*57:01; [26]): ≤ 4.70
GYSFSIPGY |  |  |  |  |  |  |  |  |  |  |  |  |  |  |  |  |  | pKd (HLA-B*40:01): ≤ 4.70; pKd (HLA-A*11:01 [10]): ≤ 4.70; pKd (HLA-A*02:01 [11]): ≤ 4.70; pKd (HLA-B*44:02): ≤ 4.70; pKd (HLA-B*58:01): ≤ 4.70; pKd (HLA-B*15:01 [12]): 6.26; pKd (HLA-A*31:01 [13]): ≤ 4.70; pKd (HLA-A*03:01 [14]; [27]): ≤ 4.70; pKd (HLA-B*07:02 [15]; [27]): ≤ 4.70; pKd (HLA-A*24:03 [16]; source organism: Brucella melitensis): 5.97; pKd (HLA-A*69:01 [17]): ≤ 4.70; pKd (HLA-A*26:01 [18]; [27]): ≤ 4.70; pKd (HLA-B*35:01): 6.33; pKd (HLA-B*27:05): ≤ 4.70; pKd (HLA-B*08:01 [19]; [27]): ≤ 4.70
LYIEFTDNM |  |  |  |  |  |  |  |  |  |  |  |  |  |  |  |  |  | pKd (HLA-A*24:03 [8]; source organism: Escherichia coli 536): ≥ 9.00
RVPTVFHKK |  |  | ≤ 4.70 | ≤ 4.70 | ≤ 4.70 | ≤ 4.70 | ≤ 4.70 | ≤ 4.70 | ≤ 4.70 | ≤ 4.70 | ≤ 4.70 | ≤ 4.70 | ≤ 4.70 | ≤ 4.70 | ≤ 4.70 | ≤ 4.70 | ≤ 4.70 | pKd (HLA-B*15:01 [5]; [28]): ≤ 4.70; pKd (HLA-A*31:01 [20]): 7.57; pKd (HLA-A*26:01 [9]; [28]): ≤ 4.70; pKd (HLA-B*15:17): ≤ 4.70; pKd (HLA-A*03:01 [14]; source organism: Sudan ebolavirus - Uganda (2000)): 6.62; pKd (HLA-A*29:02): ≤ 4.70
TVIYRGTTF |  | 5.90 | ≤ 4.70 | ≤ 4.70 | ≤ 4.70 | ≤ 4.70 | ≤ 4.70 | ≤ 4.70 | ≤ 4.70 | ≤ 4.70 | ≤ 4.70 | ≤ 4.70 | ≤ 4.70 | ≤ 4.70 | ≤ 4.70 | ≤ 4.70 | ≤ 4.70 | pKd (HLA-B*15:01 [5]; [28]): 7.27; pKd (HLA-A*03:01 [14]; [28]): ≤ 4.70; pKd (HLA-A*26:01 [18]; [28]): 6.08; pKd (HLA-A*29:02): ≤ 4.70; pIC50 (HLA-B*15:01 [23]): 5.33; pIC50 (HLA-B*07:02 [24]): 4.84; pIC50 (HLA-B*08:01 [25]): 4.34
VVRVRRELL |  |  | ≤ 4.70 | ≤ 4.70 | ≤ 4.70 | ≤ 4.70 | ≤ 4.70 | ≤ 4.70 | ≤ 4.70 | ≤ 4.70 | ≤ 4.70 | ≤ 4.70 | ≤ 4.70 | ≤ 4.70 | ≤ 4.70 | ≤ 4.70 | ≤ 4.70 | pKd (HLA-A*26:01 [9]; [28]): ≤ 4.70; pKd (HLA-A*03:01 [14]; [28]): ≤ 4.70; pKd (HLA-B*07:02 [15]; [29]): 5.10; pKd (HLA-B*08:01 [19]; [29]): 5.22
VYRDHSEKK | 4.60 | 4.54 |  |  |  |  |  |  |  |  |  |  |  |  |  |  |  | pIC50 (HLA-A*11:01 [3]): 4.48
